According to the supplement of paper PMC9170038:

Tests used:
MS2 coat protein [1] = assay: apparent KD of MS2 coat protein; higher = weaker reporter binding; conditions: Eterna round: R101
Experimental: (§1)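 RNA-MaP: designed FMN/MS2 RNA switches (84 nt design region) are transcribed on-chip within common flanks and titrated with SNAP-549-labelled MS2 coat protein (about 1-3000 nM) in 100 mM Tris pH 7.5, 80 mM KCl, 4 mM MgCl2, without or with 200 uM FMN. Median apparent KD per design; activation ratio = KD,OFF / KD,ON.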

MS2 coat protein [2] = assay: apparent KD of MS2 coat protein; designed switch direction (-1 OFF switch, 1 ON switch): -1; higher = weaker reporter binding; conditions: Eterna round: R98
Experimental: as §1

Sequence	apparent KD of MS2 coat protein (MS2 coat protein [1]; input ligand: FMN 200 uM) [nM]	apparent KD of MS2 coat protein (MS2 coat protein [1]; input ligand: none) [nM]	apparent KD of MS2 coat protein (MS2 coat protein [2]; input ligand: FMN 200 uM) [nM]	apparent KD of MS2 coat protein (MS2 coat protein [2]; input ligand: none) [nM]
UAAAUAAAUCCUAGAGGAUCACCCUAGGAUAUCACCGUCGAGGUGCCAUAAUGGCACCUCGACGGUGAGAAGGAGGUUGAUAAA [#SharedSequence - SLExNG3: 6] (puzzle (switch architecture): Small Loop Exclusion NG 3)	13	8.33	–	–
GGUCGACUUCAAGGAUAUGGACUGCAAAGCAGUCCAGAAGGUGAGGAUCACCCACCUACGGUCAGGAAACUGACCGAUCGACCA [#SharedSequence - ExNG1-4] (puzzle (switch architecture): Exclusion NG 1)	12.3	10.5	–	–
AAAUAAACUCAAGGAUAUGACUCCGAAACGGAGUCAGAAGGUGAGGAUCACCCACCUAAGAUCAGACCUCAGGAAACUGAGGUC [#SharedSequence ExNG1 - 36] (puzzle (switch architecture): Exclusion NG 1)	13.2	6.46	–	–
UAUUAUUUGGAGAAGGACAUGAGGAUCACCCAUGUCGCCGGGCCCGGGAAACCGGGCCCGGCCAUGUAGGAUAUCCGGAUGGUA [#This is a good prank 4] (puzzle (switch architecture): Inverted Exclusion NG 2)	7.61	7.31	–	–
GCAGCUAAUGCAGGAUAUCAGCACGUGUAGUGCUGAGAAGGGCACAUGAGGAUCAAAACUGUGAUCAAUUAAUAUUAAUGCUGC [salish99#hingeEx3_55-58_001] (puzzle (switch architecture): Exclusion NG 1)	8.28	9.12	–	–
GUAGCAUUGAGAGGAUAUCCAUACCGGAAACGGACAUGAGGAUCACCCAUGUGGCGAAAGCCUUGGGAGAAGGCUCUAUGCUAC [S-state NG2 01] (puzzle (switch architecture): Same State NG 2)	–	4.34	–	–
GCACUGGAUGUAGGAUAUCAGGACGAUAAGUCCUGAGAAGGACAUGAGGAUCACCCAUGUCCCAAAACCAGUGCAUAUAAUAUA [Denovo Exng1 31]	–	–	19.8	14.3
AAAUGCCUGUCGAUGCUCGACAUGAGGAUCACCCAUGUAUAGCAGGAUAUGCAGAACUGACUCGUGCAGAAGGGCUAUACCUAA (puzzle (switch architecture): Exclusion NG 3)	52.8	18.7	–	–
AAAUCUCGAGCCGACGGGAGAGUACAUGAGGAUCACCCAUGUGAGGAUAUCCCUGAGAAGACGGCGGAGAAGGCACUGGGUAGG [Erzaribeve] (puzzle (switch architecture): Exclusion NG 3)	9.95	8.6	–	–
UCAGGUCGGGAAGGAUAUCGGCCGCAGAGAGCUCGAGAAGGUCCCGACAUGAGGAUCACCCAUGUUGAAGGAUCCUAACGUGCC [Maonan]	–	–	35.4	38.3
AAAUAAAUUCAAGGAUAUCAGUGGCAAAGCCACUGAGAAGGUGAGGAUCACCCACCUAUGAUCACAGGUGACGAAAGUCACCUG [#SharedSequence ExNG1 - 38] (puzzle (switch architecture): Exclusion NG 1)	11.4	11.3	–	–
CAGUCGACCAUAACAAGGUCGACUGACUUCUGAGGAUCACCCAGAAGGCGUCACCUAAUAGGUGACGAGGAUAUGGAGUGAAAA [#SharedSequence IExNG# - 6] (puzzle (switch architecture): Inverted Exclusion NG 3)	75	95	–	–
AAAUGAUAUCAGAAGGGCUCCAGCAAAGCUGGAGCAGGAUAUGAGGAUCACCCAUGUCACCUGACGGUCGAAACGACCGUCAGG [#SharedSequence - IExNG1: 7-3] (puzzle (switch architecture): Inverted Exclusion NG 1)	205	26.6	–	–
AAUAUAAAGAGCUGGUCUCAAAUAACAUGAGGAUCACCCAUGUAGGAUAUCAGCACGAUAAGUGCUGAGAAGGACAUCCAGCUC [Denovo 49]	–	–	18.9	15.9
AAAAUAAAGGCAGGAUAUACAUGAAUAUAUAAUAUAAUAUAUAAUAUAACAUGAGGAUCACCCAUGUAGAAGGGCCAAAAUAAA [LRO026_Exclusion NG 2]	–	–	88.1	46.4
AAUAAUCUUUAAGGAUAUCAGUGGCAAAGCCACUGAGAAGGUGAGGAUCACCCACCUACGUGACCCUGGAAACAGGGUCACGAA [#SharedSequence - ExNG1-10] (puzzle (switch architecture): Exclusion NG 1)	15.4	14.3	–	–
GAGAAGAAGUUAGGAUAUUGGAUAGGGACGGAAUAAGAAGGAGCAAGGGACAUGAGGAUCACCCAUGUAGAAGAAGAGAUCCUC [X-NG1_50] (puzzle (switch architecture): Exclusion NG 1)	10.9	26.7	–	–
UAAAUAAAUCCUAGAGGAUCACCCUAGGAUAUCACCGUCGAGGUGCCAUAAUGGCACCUCGACGGUGAGAAGGAGGGAAAUAAA [#SharedSequence - SLExNG3: 3] (puzzle (switch architecture): Small Loop Exclusion NG 3)	11.6	9.97	–	–
UAAAUAGAUCCUAGAGGAUCACCCUAGGAUAUCACCGUCGAGGUGCCAUAAUGGCACCUCGACGGUGAGAAGGAGGUUGAUAAA [#SharedSequence - SLExNG3: 7] (puzzle (switch architecture): Small Loop Exclusion NG 3)	19.9	11.4	–	–
UUACUCAUGUAAGGAUAUGCAGCCGAAACGGCUGCAGAAGGUACUAUAAUACAUGAGGAUCACCCAUGUAAAAUAAAUAAGGUU (puzzle (switch architecture): Same State NG 1)	19.5	44.1	–	–
GGAGAUACAUGAGGAUCACCCAUGUAGGAUAUAUAGUAUAUAUAUAUUGAAAGAUAUAUAUAUAUAUAGAAGGGCGUGCACACC [#LOL-17] (puzzle (switch architecture): Small Loop Exclusion NG 3)	6.32	8.77	–	–
AUAUAUAUAUAGAAGGACAUGAGGAUCACCCAUGUCGCCGGGCCCGGGAAACCGGGCCCGGCCAUGUAGGAUAUAUAUAUAUAU [#This is a good prank 12] (puzzle (switch architecture): Inverted Exclusion NG 2)	5.57	3.55	–	–
GCCAUCGCAUGAGGAUAUGCUCCGGUUUCCGGAGCAGAAGGCAUGUCAUAAGACAUGAGGAUCACCCAUGUAGUUAAGAUGGCA [#HiddenHairpinInALoop - jl-sng1-2.00 jl mod - Original] (puzzle (switch architecture): Same State NG 1)	10.6	283	–	–
GCGCGCGCGUCAGGAUAUACAUGAGGAUCACCCAUGUGUGCGCGCGCGCGCGCGCGCGCGCGCGUGUAGAAGGGACGCUGUCGC [Incredible-Exclusion NG 2]	–	–	20.6	14.4
